Biological target: Anti-CD28 Fab (SEQ ID NOs: 202, 203)
Test: phage binding ELISA on captured Fab;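 further: clonal phage supernatants added briefly to wells pre-incubated with CD28 antigen or with blocking buffer only, then washed, bound phage read by ELISA using HRP-coupled anti-M13 antibody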
Protocol: Clonal phage were harvested as crude supernatants and screened via standard ELISAs. […] Prior to the addition of clonal phage, wells were incubated with blocking buffer and CD28 antigen or blocking buffer alone. Without washing or aspirating, clonal phage supernatants were then added to the wells and incubated for a short time. Wells were then washed followed by detection of bound phage using a horse radish conjugated anti-M13 antibody.

Chain of Anti-CD28 Fab (SEQ ID NOs: 202, 203) (VH, as listed by the source, chain 1 of 2): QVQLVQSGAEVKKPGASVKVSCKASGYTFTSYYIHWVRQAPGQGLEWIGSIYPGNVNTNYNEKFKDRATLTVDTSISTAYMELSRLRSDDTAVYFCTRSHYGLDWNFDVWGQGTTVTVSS
Chain of Anti-CD28 Fab (SEQ ID NOs: 202, 203) (VL, as listed by the source, chain 2 of 2): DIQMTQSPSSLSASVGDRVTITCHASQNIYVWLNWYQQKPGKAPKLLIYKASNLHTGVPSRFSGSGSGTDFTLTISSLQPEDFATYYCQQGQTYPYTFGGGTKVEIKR

Binder	Anti-CD28 Fab signal
YCAGHSHEYLAKCE [Phage-24]	0.86
YCAGMSTIQLWLKC [Phage-20]	2.16
YCDGHSPMYILKCL [Phage-79]	2.34
YCMGHSHEHIWKCL [Phage-23]	0.87
YCAGHTEEHYVKCM [Phage-22]	0.62
DCPWLSGFSRPLLC [Phage-19]	1.27
YCAGHMPQYEVKCL [Phage-21]	0.22
YCEGHSPEYMAKCL [Phage-74]	2.35
YCDGHLPQYMWKCL [Phage-107]	2.29
YCDGHLPEYMSKCL [Phage-75]	2.35
YCQGHAPEYMAKCL [Phage-110]	2.28
YCEGHLPQYMAKCL [Phage-81]	2.34
YCDGHSPLYMWKCL [Phage-82]	2.34
YCAGHLPEYMEKCL [Phage-128]	2.24
YCDGHLPMYMMKCL [Phage-109]	2.28
YCDGHLPMYMQKCL [Phage-83]	2.33
YCEGHLPEYMLKCL [Phage-87]	2.32
YCDGHLPIYMSKCL [Phage-84]	2.32
YCDGHLPQYMAKCL [Phage-76]	2.35
YCDGHVPEYMAKCL [Phage-108]	2.29
YCDGHLPEYMMKCL [Phage-78]	2.34
YCQGHLPEYMNKCL [Phage-130]	2.24
YCDGHSSEYMAKCL [Phage-113]	2.28
YCSGHLPQYMQKCL [Phage-112]	2.28
YCDGHSQEYMMKCL [Phage-111]	2.28
YCEGHAAEYMEKCL [Phage-104]	2.3
YCDGHSQEYMAKCL [Phage-131]	2.24
YCEGHAWEYMAKCL [Phage-129]	2.24
